Data taken from US20200277392A1 (Hoffmann-La Roche, published 2020).

B1: anti-OX40 clone 8H9, Fab (Fab, V domains shown)
VH: QVQLVQSGAEVKKPGSSVKVSCKASGGTFSSYAISWVRQAPGQGLEWMGGIIPIFGTANYAQKFQGRVTITADKSTSTAYMELSSLRSEDTAVYYCAREYGWMDYWGQGTTVTVSS
VL: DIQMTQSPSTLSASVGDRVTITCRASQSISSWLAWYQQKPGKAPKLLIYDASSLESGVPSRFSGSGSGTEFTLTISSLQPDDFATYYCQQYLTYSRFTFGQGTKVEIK
notes: Flag-tagged Fab in bacterial supernatant (phage library DP88-4); also called OX40(8H9)
B2: anti-OX40 clone 1G4, Fab (Fab, V domains shown)
VH: QVQLVQSGAEVKKPGSSVKVSCKASGGTFSSYAISWVRQAPGQGLEWMGGIIPIFGTANYAQKFQGRVTITADKSTSTAYMELSSLRSEDTAVYYCAREYGSMDYWGQGTTVTVSS
VL: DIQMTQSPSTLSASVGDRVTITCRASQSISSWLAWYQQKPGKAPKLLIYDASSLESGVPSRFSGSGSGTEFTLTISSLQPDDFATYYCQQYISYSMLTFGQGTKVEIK
notes: Flag-tagged Fab in bacterial supernatant (phage library DP88-4); also called OX40(1G4)
B3: 49B4/TnC 18D4 P329GLALA 4 + 1 (ID7745) (bispecific antibody, human IgG1, kappa, L234A L235A)
heavy 1: not shown
heavy 2: not shown
light: DIQMTQSPSTLSASVGDRVTITCRASQSISSWLAWYQQKPGKAPKLLIYDASSLESGVPSRFSGSGSGTEFTLTISSLQPDDFATYYCQQYSSQPYTFGQGTKVEIKRTVAAPSVFIFPPSDEQLKSGTASVVCLLNNFYPREAKVQWKVDNALQSGNSQESVTEQDSKDSTYSLSSTLTLSKADYEKHKVYACEVTHQGLSSPVTKSFNRGEC
B4: anti-OX40 clone 17A9, Fab (Fab, V domains shown)
VH: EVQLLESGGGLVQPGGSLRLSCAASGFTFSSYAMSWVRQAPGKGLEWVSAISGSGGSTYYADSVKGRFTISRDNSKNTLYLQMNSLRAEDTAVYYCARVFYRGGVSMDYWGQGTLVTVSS
VL: SSELTQDPAVSVALGQTVRITCQGDSLRSYYASWYQQKPGQAPVLVIYGKNNRPSGIPDRFSGSSSGNTASLTITGAQAEDEADYYCNSRVMPHNRVFGGGTKLTV
notes: Flag-tagged Fab in bacterial supernatant (phage library lambda-DP47); also called OX40(17A9)
B5: anti-OX40 clone 20B7, Fab (Fab, V domains shown)
VH: QVQLVQSGAEVKKPGSSVKVSCKASGGTFSSYAISWVRQAPGQGLEWMGGIIPIFGTANYAQKFQGRVTITADKSTSTAYMELSSLRSEDTAVYYCARVNYPYSYWGDFDYWGQGTTVTVSS
VL: DIQMTQSPSTLSASVGDRVTITCRASQSISSWLAWYQQKPGKAPKLLIYDASSLESGVPSRFSGSGSGTEFTLTISSLQPDDFATYYCQQYQAFSLTFGQGTKVEIK
notes: Flag-tagged Fab in bacterial supernatant (phage library DP88-4); also called OX40(20B7)
B6: anti-OX40 clone 49B4, Fab (Fab, V domains shown)
VH: QVQLVQSGAEVKKPGSSVKVSCKASGGTFSSYAISWVRQAPGQGLEWMGGIIPIFGTANYAQKFQGRVTITADKSTSTAYMELSSLRSEDTAVYYCAREYYRGPYDYWGQGTTVTVSS
VL: DIQMTQSPSTLSASVGDRVTITCRASQSISSWLAWYQQKPGKAPKLLIYDASSLESGVPSRFSGSGSGTEFTLTISSLQPDDFATYYCQQYSSQPYTFGQGTKVEIK
notes: Flag-tagged Fab in bacterial supernatant (phage library DP88-4); also called OX40(49B4)

Tests used:
[1] = target: T1, human OX40 Fc(kih), monomeric Fc-linked human OX40 antigen ECD (human, UniProt P0DOX5 223-449 = IgG part); experiment: ELISA, Fab-containing bacterial supernatants on biotinylated human OX40 on neutravidin plates, anti-Flag/HRP detection
T1 construct: Heterodimer of one OX40 ECD (aa 29-214)-AcTEV-Fc knob-Avi chain and one Fc hole chain; Biotinylated at the Avi tag for phage selection and ELISA; also called recombinant OX40 Fc (kih) receptor; biotinylated human OX40
Experimental: Selections were carried out over 3 or 4 rounds using constant antigen concentrations of 100 nM. […] In rounds 2 and 4, in order to avoid enrichment of binders to neutravidin, capture of antigen: phage complexes was performed by addition of 5.4×10⁷ streptavidin-coated magnetic beads. […] Fab-containing bacterial supernatants were added and binding Fabs were detected via their Flag-tags using an anti-Flag/HRP secondary antibody. […] They were bacterially expressed in a 0.5 liter culture volume, affinity purified and further characterized by SPR-analysis using BioRad's ProteOn XPR36 biosensor.

[2] = target: T1, human OX40 Fc(kih), monomeric Fc-linked …; experiment: SPR (Biacore T200, 25 °C): bispecific held on immobilised human TnC; human OX40 Fc(kih) at 250 nM injected for 90 s as analyte 2
Experimental: All SPR experiments were performed on a Biacore T200 at 25° C. with HBS-EP as running buffer (0.01 M HEPES pH 7.4, 0.15 M NaCl, 3 mM EDTA, 0.005% Surfactant P20, Biacore, Freiburg/Germany).
Biotinylated human TnC was directly coupled to a flow cell of a streptavidin (SA) sensor chip. Immobilization levels up to 1000 resonance units (RU) were used.
Bulk refractive index differences were corrected for by subtracting the response obtained in a reference flow cell, where no protein was immobilized.

Row | Binder | binding result [1] | binding result [2]
1 | B1 | binds | 
2 | B2 | binds | 
3 | B3 |  | binds
4 | B4 | binds | 
5 | B5 | binds | 
6 | B6 | binds | 
